{"source": "patent EP4261227A1", "biological_target": "OXA-48-like carbapenemase (Klebsiella pneumoniae) (UniProt Q6XEC0)", "sequence (Q6XEC0 23-265 limits assumed)": "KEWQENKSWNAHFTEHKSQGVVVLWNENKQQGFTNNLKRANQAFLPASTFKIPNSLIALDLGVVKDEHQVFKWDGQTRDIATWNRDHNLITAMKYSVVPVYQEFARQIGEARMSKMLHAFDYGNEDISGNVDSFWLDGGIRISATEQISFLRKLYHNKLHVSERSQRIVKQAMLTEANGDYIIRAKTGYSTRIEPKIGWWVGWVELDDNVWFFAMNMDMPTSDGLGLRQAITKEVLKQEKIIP", "test": "indirect ELISA, plate coated with 0.2 ug/mL OXA-48-like carbapenemase, purified antibody in doubling dilutions from 1:1000", "data": [{"binder": "anti-OXA-48-like carbapenemase mouse mAb IB5 (antibody, V domains shown) VH: EVMLVESGGGLVKPGGSLKLSCAASGFTFSTYAMSWVRLTPEKRLEWVATISSGGSYTSYPDSVKGRFTISRDNAKNTLYLQMSSLRSEDTAMYYCARRPEYAMDYWGQGTSVTVSS VL: LVQHQPVSSYLAASPGETVTINCRASKSISKYLAWYQEKPGKTNKLLIYSGSTFQSGFPSGFSGSGSGTDFTLTVSSLEPEDFAIYYCQQHNEYPYVTFGGGTKLEIKR", "values": [{"measurement": "titer (dilution factor (1:x) from 1 mg/mL)", "result": "1.28e+06"}]}]}
